The values below come from article doi:10.1101/2022.03.10.483744 (bioRxiv, 2022).

Where “and” joins values, the source holds several entries; their conditions need not be identical. Equal values may be shown once.

In one data set the target is CLPB^isoform1 (human). As to the kind of experiment: cryo-EM 2D classification.
Data set [1] deals with CLPB-NBD (NBD-only variant, N-terminal ANK domain truncated) (human) (UniProt Q9H078). The experiment in a line: cryo-EM 2D classification.
The target of another data set is CLPB-NBD^E425Q (human) (UniProt Q9H078). The experiment in a line: cryo-EM structure.
The data set “cryo-EM structure” concerns the molecule itself. As to the kind of experiment: cryo-EM structure.
Data set [2] concerns the molecule itself. As to the kind of experiment: SEC + other: negative-staining EM.
The data set “SEC” concerns the molecule itself. The experiment in a line: SEC.

The molecule CLPB^isoform1 (natural protein) returned a stoichiometry N with CLPB^isoform1 (human) of 14.

Consider “CLPB-NBD (NBD-only variant, N-terminal ANK domain truncated) (from UniProt Q9H078-2 1-677) (domain or fragment)”, for which the stoichiometry N in data set [1] was 6 and 7.

In the case of “CLPB-NBD^E425Q (from UniProt Q9H078-2 1-677) (domain or fragment)”, the stoichiometry N with CLPB-NBD^E425Q (human) was 6 and 7 and 9.

B1: CLPB-N127 (human CLPB isoform 2 starting from the PARL cleavage site) (natural protein)
chain: YSKSPSNKDAALLEAARANNMQEVSRLLSEGADVNAKHRLGWTALMVAAINRNNSVVQVLLAAGADPNLGDDFSSVYKTAKEQGIHSLEVLITREDDFNNRLNNRASFKGCTALHYAVLADDYRTVKELLDGGANPLQRNEMGHTPLDYAREGEVMKLLRTSEAKYQEKQRKREAEERRRFPLEQRLKEHIIGQESAIATVGAAIRRKENGWYDEEHPLVFLFLGSSGIGKTELAKQTAKYMHKDAKKGFIRLDMSEFQERHEVAKFIGSPPGYVGHEEGGQLTKKLKQCPNAVVLFDEVDKAHPDVLTIMLQLFDEGRLTDGKGKTIDCKDAIFIMTSNVASDEIAQHALQLRQEALEMSRNRIAENLGDVQISDKITISKNFKENVIRPILKAHFRRDEFLGRINEIVYFLPFCHSELIQLVNKELNFWAKRAKQRHNITLLWDREVADVLVDGYNVHYGARSIKHEVERRVVNQLAAAYEQDLLPGGCTLRITVEDSDKQLLKSPELPSPQAEKRLPKLRLEIIDKDSKTRRLDIRAPLHPEKVCNTI
Consider B1, for which the “stoichiometry N” value in “cryo-EM structure” is 14.

B2: CLPB^E425Q (Walker B mutant of CLPB-N127) (natural protein)
chain: YSKSPSNKDAALLEAARANNMQEVSRLLSEGADVNAKHRLGWTALMVAAINRNNSVVQVLLAAGADPNLGDDFSSVYKTAKEQGIHSLEVLITREDDFNNRLNNRASFKGCTALHYAVLADDYRTVKELLDGGANPLQRNEMGHTPLDYAREGEVMKLLRTSEAKYQEKQRKREAEERRRFPLEQRLKEHIIGQESAIATVGAAIRRKENGWYDEEHPLVFLFLGSSGIGKTELAKQTAKYMHKDAKKGFIRLDMSEFQERHEVAKFIGSPPGYVGHEEGGQLTKKLKQCPNAVVLFDQVDKAHPDVLTIMLQLFDEGRLTDGKGKTIDCKDAIFIMTSNVASDEIAQHALQLRQEALEMSRNRIAENLGDVQISDKITISKNFKENVIRPILKAHFRRDEFLGRINEIVYFLPFCHSELIQLVNKELNFWAKRAKQRHNITLLWDREVADVLVDGYNVHYGARSIKHEVERRVVNQLAAAYEQDLLPGGCTLRITVEDSDKQLLKSPELPSPQAEKRLPKLRLEIIDKDSKTRRLDIRAPLHPEKVCNTI
With B2, the “stoichiometry N” value in the data set “cryo-EM structure” was found to be 12.

B3: CLPB^R178E (natural protein)
chain: YSKSPSNKDAALLEAARANNMQEVSRLLSEGADVNAKHRLGWTALMVAAINENNSVVQVLLAAGADPNLGDDFSSVYKTAKEQGIHSLEVLITREDDFNNRLNNRASFKGCTALHYAVLADDYRTVKELLDGGANPLQRNEMGHTPLDYAREGEVMKLLRTSEAKYQEKQRKREAEERRRFPLEQRLKEHIIGQESAIATVGAAIRRKENGWYDEEHPLVFLFLGSSGIGKTELAKQTAKYMHKDAKKGFIRLDMSEFQERHEVAKFIGSPPGYVGHEEGGQLTKKLKQCPNAVVLFDEVDKAHPDVLTIMLQLFDEGRLTDGKGKTIDCKDAIFIMTSNVASDEIAQHALQLRQEALEMSRNRIAENLGDVQISDKITISKNFKENVIRPILKAHFRRDEFLGRINEIVYFLPFCHSELIQLVNKELNFWAKRAKQRHNITLLWDREVADVLVDGYNVHYGARSIKHEVERRVVNQLAAAYEQDLLPGGCTLRITVEDSDKQLLKSPELPSPQAEKRLPKLRLEIIDKDSKTRRLDIRAPLHPEKVCNTI
Regarding B3, the binding result in data set [2] is “binds”.

B4: CLPB^R227E (natural protein)
chain: YSKSPSNKDAALLEAARANNMQEVSRLLSEGADVNAKHRLGWTALMVAAINRNNSVVQVLLAAGADPNLGDDFSSVYKTAKEQGIHSLEVLITREDDFNNELNNRASFKGCTALHYAVLADDYRTVKELLDGGANPLQRNEMGHTPLDYAREGEVMKLLRTSEAKYQEKQRKREAEERRRFPLEQRLKEHIIGQESAIATVGAAIRRKENGWYDEEHPLVFLFLGSSGIGKTELAKQTAKYMHKDAKKGFIRLDMSEFQERHEVAKFIGSPPGYVGHEEGGQLTKKLKQCPNAVVLFDEVDKAHPDVLTIMLQLFDEGRLTDGKGKTIDCKDAIFIMTSNVASDEIAQHALQLRQEALEMSRNRIAENLGDVQISDKITISKNFKENVIRPILKAHFRRDEFLGRINEIVYFLPFCHSELIQLVNKELNFWAKRAKQRHNITLLWDREVADVLVDGYNVHYGARSIKHEVERRVVNQLAAAYEQDLLPGGCTLRITVEDSDKQLLKSPELPSPQAEKRLPKLRLEIIDKDSKTRRLDIRAPLHPEKVCNTI
As to B4, in data set [2], the binding result is reported as “binds”.

B5: CLPB^Δ201-232 (natural protein)
chain: YSKSPSNKDAALLEAARANNMQEVSRLLSEGADVNAKHRLGWTALMVAAINRNNSVVQVLLAAGADPNLGDDFSSFKGCTALHYAVLADDYRTVKELLDGGANPLQRNEMGHTPLDYAREGEVMKLLRTSEAKYQEKQRKREAEERRRFPLEQRLKEHIIGQESAIATVGAAIRRKENGWYDEEHPLVFLFLGSSGIGKTELAKQTAKYMHKDAKKGFIRLDMSEFQERHEVAKFIGSPPGYVGHEEGGQLTKKLKQCPNAVVLFDEVDKAHPDVLTIMLQLFDEGRLTDGKGKTIDCKDAIFIMTSNVASDEIAQHALQLRQEALEMSRNRIAENLGDVQISDKITISKNFKENVIRPILKAHFRRDEFLGRINEIVYFLPFCHSELIQLVNKELNFWAKRAKQRHNITLLWDREVADVLVDGYNVHYGARSIKHEVERRVVNQLAAAYEQDLLPGGCTLRITVEDSDKQLLKSPELPSPQAEKRLPKLRLEIIDKDSKTRRLDIRAPLHPEKVCNTI
As to B5, the binding result in “SEC” was “binds”.

The term stoichiometry N denotes the number of molecules, sites or subunits per partner or assembly.
